Data from PMC6859792.

Test system: O=P(O)(O)O[C@H]1O[C@H]([C@H](O)CO)[C@@H](O)[C@H](O)[C@@H]1O
Test: purified protein
Conditions: pH 7.4, 25 °C, GTP 1.0 mM, MgCl2 2.0 mM, pyrophosphatase 1 U

Question: How did the Km turn out when “Cj1423 (Campylobacter jejuni subsp. jejuni NCTC 11168 = ATCC 700819)” was run?
Answer: Its Km is 495 ± 65 µM.

Question: What about the kcat of the same substance?
Answer: Its kcat is 1.35 ± 0.04 s⁻¹.

Question: What about the kcat/Km of the same substance?
Answer: Its kcat/Km is 2700 ± 400 M⁻¹ s⁻¹.
